Patent US20030186281A1, “Modified tetracycline repressor protein compositions and methods of use” (priority 2001, published 2003)

B1: TetRrev96/99-9: revTetR(BD) G96H V99N (protein)
chain: MSRLDKSKVINSALELLNEVGIEGLTTRKLAQKLGVEQPTLYWHVKNKRALLDALAVEILARHHDYSLPAAGESWQSFLRNNAMSFRRALLRYRDHAKNHLGTRPDEKQYDTVETQLRFMTENGFSLRDGLYAISAVSHFTLGAVLEQQEHTAALTDRPAAPDENLPPLLREALQIMDSDDGEQAFLHGLESLIRGFEVQLTALLQIV
modifications: Modified tetracycline repressor
notes: revTetR(BD) G96H V99N
B2: TetRrev96/99-20: revTetR(BD) G96S V99K (protein)
chain: MSRLDKSKVINSALELLNEVGIEGLTTRKLAQKLGVEQPTLYWHVKNKRALLDALAVEILARHHDYSLPAAGESWQSFLRNNAMSFRRALLRYRDSAKKHLGTRPDEKQYDTVETQLRFMTENGFSLRDGLYAISAVSHFTLGAVLEQQEHTAALTDRPAAPDENLPPLLREALQIMDSDDGEQAFLHGLESLIRGFEVQLTALLQIV
modifications: Modified tetracycline repressor
notes: revTetR(BD) G96S V99K
B3: TetRrev96/99-19: revTetR(BD) G96R V99S (protein)
chain: MSRLDKSKVINSALELLNEVGIEGLTTRKLAQKLGVEQPTLYWHVKNKRALLDALAVEILARHHDYSLPAAGESWQSFLRNNAMSFRRALLRYRDRAKSHLGTRPDEKQYDTVETQLRFMTENGFSLRDGLYAISAVSHFTLGAVLEQQEHTAALTDRPAAPDENLPPLLREALQIMDSDDGEQAFLHGLESLIRGFEVQLTALLQIV
modifications: Modified tetracycline repressor
notes: revTetR(BD) G96R V99S
B4: TetRrev96/99-17: revTetR(BD) G96T V99K (protein)
chain: MSRLDKSKVINSALELLNEVGIEGLTTRKLAQKLGVEQPTLYWHVKNKRALLDALAVEILARHHDYSLPAAGESWQSFLRNNAMSFRRALLRYRDTAKKHLGTRPDEKQYDTVETQLRFMTENGFSLRDGLYAISAVSHFTLGAVLEQQEHTAALTDRPAAPDENLPPLLREALQIMDSDDGEQAFLHGLESLIRGFEVQLTALLQIV
modifications: Modified tetracycline repressor
notes: revTetR(BD) G96T V99K
B5: TetRrev96/99-18: revTetR(BD) G96T V99P (protein)
chain: MSRLDKSKVINSALELLNEVGIEGLTTRKLAQKLGVEQPTLYWHVKNKRALLDALAVEILARHHDYSLPAAGESWQSFLRNNAMSFRRALLRYRDTAKPHLGTRPDEKQYDTVETQLRFMTENGFSLRDGLYAISAVSHFTLGAVLEQQEHTAALTDRPAAPDENLPPLLREALQIMDSDDGEQAFLHGLESLIRGFEVQLTALLQIV
modifications: Modified tetracycline repressor
notes: revTetR(BD) G96T V99P
B6: TetRrev96/99-14: revTetR(BD) G96N V99N (protein)
chain: MSRLDKSKVINSALELLNEVGIEGLTTRKLAQKLGVEQPTLYWHVKNKRALLDALAVEILARHHDYSLPAAGESWQSFLRNNAMSFRRALLRYRDNAKNHLGTRPDEKQYDTVETQLRFMTENGFSLRDGLYAISAVSHFTLGAVLEQQEHTAALTDRPAAPDENLPPLLREALQIMDSDDGEQAFLHGLESLIRGFEVQLTALLQIV
modifications: Modified tetracycline repressor
notes: revTetR(BD) G96N V99N
B7: TetRrev96/99-15: revTetR(BD) G96P V99P (protein)
chain: MSRLDKSKVINSALELLNEVGIEGLTTRKLAQKLGVEQPTLYWHVKNKRALLDALAVEILARHHDYSLPAAGESWQSFLRNNAMSFRRALLRYRDPAKPHLGTRPDEKQYDTVETQLRFMTENGFSLRDGLYAISAVSHFTLGAVLEQQEHTAALTDRPAAPDENLPPLLREALQIMDSDDGEQAFLHGLESLIRGFEVQLTALLQIV
modifications: Modified tetracycline repressor
notes: revTetR(BD) G96P V99P
B8: TetRrev96/99-16: revTetR(BD) G96P V99Y (protein)
chain: MSRLDKSKVINSALELLNEVGIEGLTTRKLAQKLGVEQPTLYWHVKNKRALLDALAVEILARHHDYSLPAAGESWQSFLRNNAMSFRRALLRYRDPAKYHLGTRPDEKQYDTVETQLRFMTENGFSLRDGLYAISAVSHFTLGAVLEQQEHTAALTDRPAAPDENLPPLLREALQIMDSDDGEQAFLHGLESLIRGFEVQLTALLQIV
modifications: Modified tetracycline repressor
notes: revTetR(BD) G96P V99Y
B9: TetRrevAtc4-20: revTetR(BD) V57V E58K L60V A61T R62G (protein)
chain: MSRLDKSKVINSALELLNEVGIEGLTTRKLAQKLGVEQPTLYWHVKNKRALLDALAVKIVTGHHDYSLPAAGESWQSFLRNNAMSFRRALLRYRDGAKVHLGTRPDEKQYDTVETQLRFMTENGFSLRDGLYAISAVSHFTLGAVLEQQEHTAALTDRPAAPDENLPPLLREALQIMDSDDGEQAFLHGLESLIRGFEVQLTALLQIV
modifications: Modified tetracycline repressor
notes: revTetR(BD) V57V E58K L60V A61T R62G
B10: TetRrev96/99-10: revTetR(BD) G96N V99P (protein)
chain: MSRLDKSKVINSALELLNEVGIEGLTTRKLAQKLGVEQPTLYWHVKNKRALLDALAVEILARHHDYSLPAAGESWQSFLRNNAMSFRRALLRYRDNAKPHLGTRPDEKQYDTVETQLRFMTENGFSLRDGLYAISAVSHFTLGAVLEQQEHTAALTDRPAAPDENLPPLLREALQIMDSDDGEQAFLHGLESLIRGFEVQLTALLQIV
modifications: Modified tetracycline repressor
notes: revTetR(BD) G96N V99P
B11: TetRrevAtc4-21: revTetR(BD) K6K D53F L55L V57L I59S A61S (protein)
chain: MSRLDKSKVINSALELLNEVGIEGLTTRKLAQKLGVEQPTLYWHVKNKRALLFALALESLSRHHDYSLPAAGESWQSFLRNNAMSFRRALLRYRDGAKVHLGTRPDEKQYDTVETQLRFMTENGFSLRDGLYAISAVSHFTLGAVLEQQEHTAALTDRPAAPDENLPPLLREALQIMDSDDGEQAFLHGLESLIRGFEVQLTALLQIV
modifications: Modified tetracycline repressor
notes: revTetR(BD) K6K D53F L55L V57L I59S A61S
B12: TetRrev96/99-12: revTetR(BD) G96H V99Q (protein)
chain: MSRLDKSKVINSALELLNEVGIEGLTTRKLAQKLGVEQPTLYWHVKNKRALLDALAVEILARHHDYSLPAAGESWQSFLRNNAMSFRRALLRYRDHAKQHLGTRPDEKQYDTVETQLRFMTENGFSLRDGLYAISAVSHFTLGAVLEQQEHTAALTDRPAAPDENLPPLLREALQIMDSDDGEQAFLHGLESLIRGFEVQLTALLQIV
modifications: Modified tetracycline repressor
notes: revTetR(BD) G96H V99Q
B13: TetRrev96/99-11: revTetR(BD) G96R V99Y (protein)
chain: MSRLDKSKVINSALELLNEVGIEGLTTRKLAQKLGVEQPTLYWHVKNKRALLDALAVEILARHHDYSLPAAGESWQSFLRNNAMSFRRALLRYRDRAKYHLGTRPDEKQYDTVETQLRFMTENGFSLRDGLYAISAVSHFTLGAVLEQQEHTAALTDRPAAPDENLPPLLREALQIMDSDDGEQAFLHGLESLIRGFEVQLTALLQIV
modifications: Modified tetracycline repressor
notes: revTetR(BD) G96R V99Y
B14: TetRrev96P: revTetR(BD) G96P (protein)
chain: MSRLDKSKVINSALELLNEVGIEGLTTRKLAQKLGVEQPTLYWHVKNKRALLDALAVEILARHHDYSLPAAGESWQSFLRNNAMSFRRALLRYRDPAKVHLGTRPDEKQYDTVETQLRFMTENGFSLRDGLYAISAVSHFTLGAVLEQQEHTAALTDRPAAPDENLPPLLREALQIMDSDDGEQAFLHGLESLIRGFEVQLTALLQIV
modifications: Modified tetracycline repressor
notes: revTetR(BD) G96P
B15: TetRrev96/99-13: revTetR(BD) G96T V99D (protein)
chain: MSRLDKSKVINSALELLNEVGIEGLTTRKLAQKLGVEQPTLYWHVKNKRALLDALAVEILARHHDYSLPAAGESWQSFLRNNAMSFRRALLRYRDTAKDHLGTRPDEKQYDTVETQLRFMTENGFSLRDGLYAISAVSHFTLGAVLEQQEHTAALTDRPAAPDENLPPLLREALQIMDSDDGEQAFLHGLESLIRGFEVQLTALLQIV
modifications: Modified tetracycline repressor
notes: revTetR(BD) G96T V99D
B16: TetRrevAtc4-2: revTetR(BD) R49G L55L V57V E58N R62L H63Q (protein)
chain: MSRLDKSKVINSALELLNEVGIEGLTTRKLAQKLGVEQPTLYWHVKNKGALLDALAVNILALQHDYSLPAAGESWQSFLRNNAMSFRRALLRYRDGAKVHLGTRPDEKQYDTVETQLRFMTENGFSLRDGLYAISAVSHFTLGAVLEQQEHTAALTDRPAAPDENLPPLLREALQIMDSDDGEQAFLHGLESLIRGFEVQLTALLQIV
modifications: Modified tetracycline repressor
notes: revTetR(BD) R49G L55L V57V E58N R62L H63Q

Test system: tet operator sequence
Test: β-galactosidase activity of a tetracycline-regulated promoter in transformed E. coli with revTetR, in the presence and absence of anhydrotetracycline (atc)
Assay type: cell-based, Escherichia coli
Details: for β-Galactosidase Activity, Cultured Without ATC: RevTetR isolate cultured in the absence of anhydrotetracycline (ATC); for β-Galactosidase Activity, Cultured With ATC: RevTetR isolate cultured in the presence of anhydrotetracycline (ATC)
Outline: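 TetR(BD) chimera mutants (TetR(B) residues 1–50, TetR(D) 51–208) expressed in E. coli regulating a tet operator-controlled lacZ. β-Galactosidase measured in Miller units at 28 °C and 37 °C with and without anhydrotetracycline; reported as percent of maximal expression without Tet repressor.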

Molecule | β-Galactosidase Activity, Cultured Without ATC | β-Galactosidase Activity, Cultured With ATC
B1 | 71.6829 | 14.528
B2 | 81.8583 | 3.0074
B3 | 95.188 | 7.4009
B4 | 92.9198 | 8.4558
B5 | 85.7142 | 7.5138
B6 | 110.999 | 14.693
B7 | 110.413 | 14.218
B8 | 93.7512 | 9.8301
B9 | 78.478 | 8.048
B10 | 106.137 | 20.797
B11 | 104.757 | 16.831
B12 | 102.406 | 18.841
B13 | 97.6643 | 18.656
B14 | 24.1109 | 4.1882
B15 | 103.963 | 16.95
B16 | 3.143 | 0.9516
